According to publication PMC8328514, “Homo-oligomerization of the human adenosine A2A receptor is driven by the intrinsically disordered C-terminus” (eLife, 2021):
Positions count from the first letter of the chain named. Names and notes keep the numbering of the source.

B1: A2AR-Q372ΔC (domain or fragment, human, UniProt P29274 1-372, looked up)
chain: MPIMGSSVYITVELAIAVLAILGNVLVCWAVWLNSNLQNVTNYFVVSLAAADIAVGVLAIPFAITISTGFCAACHGCLFIACFVLVLTQSSIFSLLAIAIDRYIAIRIPLRYNGLVTGTRAKGIIAICWVLSFAIGLTPMLGWNNCGQPKEGKNHSQGCGEGQVACLFEDVVPMNYMVYFNFFACVLVPLLLMLGVYLRIFLAARRQLKQMESQPLPGERARSTLQKEVHAAKSLAIIVGLFALCWLPLHIINCFTFFCPDCSHAPLWLMYLAIVLSHTNSVVNPFIYAYRIREFRQTFRKIIRSHVLRQQEPFKAAGTSARVLAAHGSDGEQVSLRLNGHPPGVWANGSAPHPERRPNGYALGLVSGGSAQ
notes: adenosine A2A receptor, human, C-terminus truncated at site Q372 (lacks residue C394)
B2: human adenosine A2A receptor, full-length wild type (receptor, UniProt P29274 1-412, looked up)
chain: MPIMGSSVYITVELAIAVLAILGNVLVCWAVWLNSNLQNVTNYFVVSLAAADIAVGVLAIPFAITISTGFCAACHGCLFIACFVLVLTQSSIFSLLAIAIDRYIAIRIPLRYNGLVTGTRAKGIIAICWVLSFAIGLTPMLGWNNCGQPKEGKNHSQGCGEGQVACLFEDVVPMNYMVYFNFFACVLVPLLLMLGVYLRIFLAARRQLKQMESQPLPGERARSTLQKEVHAAKSLAIIVGLFALCWLPLHIINCFTFFCPDCSHAPLWLMYLAIVLSHTNSVVNPFIYAYRIREFRQTFRKIIRSHVLRQQEPFKAAGTSARVLAAHGSDGEQVSLRLNGHPPGVWANGSAPHPERRPNGYALGLVSGGSAQESQGNTGLPDVELLSHELKGVCPEPPGLDDPLAQDGAGVS
notes: adenosine A2A receptor, human, full-length wild type; also called A2AR-WT; A2AR-FL-WT
B3: A2AR-P395ΔC (domain or fragment, human, UniProt P29274 1-395, looked up)
chain: MPIMGSSVYITVELAIAVLAILGNVLVCWAVWLNSNLQNVTNYFVVSLAAADIAVGVLAIPFAITISTGFCAACHGCLFIACFVLVLTQSSIFSLLAIAIDRYIAIRIPLRYNGLVTGTRAKGIIAICWVLSFAIGLTPMLGWNNCGQPKEGKNHSQGCGEGQVACLFEDVVPMNYMVYFNFFACVLVPLLLMLGVYLRIFLAARRQLKQMESQPLPGERARSTLQKEVHAAKSLAIIVGLFALCWLPLHIINCFTFFCPDCSHAPLWLMYLAIVLSHTNSVVNPFIYAYRIREFRQTFRKIIRSHVLRQQEPFKAAGTSARVLAAHGSDGEQVSLRLNGHPPGVWANGSAPHPERRPNGYALGLVSGGSAQESQGNTGLPDVELLSHELKGVCP
notes: adenosine A2A receptor, human, C-terminus truncated at site P395
B4: A2AR-P354ΔC (domain or fragment, human, UniProt P29274 1-354, looked up)
chain: MPIMGSSVYITVELAIAVLAILGNVLVCWAVWLNSNLQNVTNYFVVSLAAADIAVGVLAIPFAITISTGFCAACHGCLFIACFVLVLTQSSIFSLLAIAIDRYIAIRIPLRYNGLVTGTRAKGIIAICWVLSFAIGLTPMLGWNNCGQPKEGKNHSQGCGEGQVACLFEDVVPMNYMVYFNFFACVLVPLLLMLGVYLRIFLAARRQLKQMESQPLPGERARSTLQKEVHAAKSLAIIVGLFALCWLPLHIINCFTFFCPDCSHAPLWLMYLAIVLSHTNSVVNPFIYAYRIREFRQTFRKIIRSHVLRQQEPFKAAGTSARVLAAHGSDGEQVSLRLNGHPPGVWANGSAPHP
notes: adenosine A2A receptor, human, C-terminus truncated at site P354
B5: A2AR-N359ΔC with the ERR:AAA mutations (domain or fragment, human, UniProt P29274 1-359, looked up)
chain: MPIMGSSVYITVELAIAVLAILGNVLVCWAVWLNSNLQNVTNYFVVSLAAADIAVGVLAIPFAITISTGFCAACHGCLFIACFVLVLTQSSIFSLLAIAIDRYIAIRIPLRYNGLVTGTRAKGIIAICWVLSFAIGLTPMLGWNNCGQPKEGKNHSQGCGEGQVACLFEDVVPMNYMVYFNFFACVLVPLLLMLGVYLRIFLAARRQLKQMESQPLPGERARSTLQKEVHAAKSLAIIVGLFALCWLPLHIINCFTFFCPDCSHAPLWLMYLAIVLSHTNSVVNPFIYAYRIREFRQTFRKIIRSHVLRQQEPFKAAGTSARVLAAHGSDGEQVSLRLNGHPPGVWANGSAPHPAAAPN
notes: adenosine A2A receptor, human, C-terminus truncated at site N359, residues 355ERR357 substituted by 355AAA357; also called A2AR-ERR:AAA variant of A2AR-N359ΔC; N359ΔC ERR:AAA
B6: A2AR-G349ΔC (domain or fragment, human, UniProt P29274 1-349, looked up)
chain: MPIMGSSVYITVELAIAVLAILGNVLVCWAVWLNSNLQNVTNYFVVSLAAADIAVGVLAIPFAITISTGFCAACHGCLFIACFVLVLTQSSIFSLLAIAIDRYIAIRIPLRYNGLVTGTRAKGIIAICWVLSFAIGLTPMLGWNNCGQPKEGKNHSQGCGEGQVACLFEDVVPMNYMVYFNFFACVLVPLLLMLGVYLRIFLAARRQLKQMESQPLPGERARSTLQKEVHAAKSLAIIVGLFALCWLPLHIINCFTFFCPDCSHAPLWLMYLAIVLSHTNSVVNPFIYAYRIREFRQTFRKIIRSHVLRQQEPFKAAGTSARVLAAHGSDGEQVSLRLNGHPPGVWANG
notes: adenosine A2A receptor, human, C-terminus truncated at site G349
B7: A2AR-G344ΔC (domain or fragment, human, UniProt P29274 1-344, looked up)
chain: MPIMGSSVYITVELAIAVLAILGNVLVCWAVWLNSNLQNVTNYFVVSLAAADIAVGVLAIPFAITISTGFCAACHGCLFIACFVLVLTQSSIFSLLAIAIDRYIAIRIPLRYNGLVTGTRAKGIIAICWVLSFAIGLTPMLGWNNCGQPKEGKNHSQGCGEGQVACLFEDVVPMNYMVYFNFFACVLVPLLLMLGVYLRIFLAARRQLKQMESQPLPGERARSTLQKEVHAAKSLAIIVGLFALCWLPLHIINCFTFFCPDCSHAPLWLMYLAIVLSHTNSVVNPFIYAYRIREFRQTFRKIIRSHVLRQQEPFKAAGTSARVLAAHGSDGEQVSLRLNGHPPG
notes: adenosine A2A receptor, human, C-terminus truncated at site G344
B8: A2AR-C394X variant with methionine at 394 (receptor, human, UniProt P29274 1-412, looked up)
chain: B2 chain with C394M
notes: also called A2AR-C394X (methionine)
B9: A2AR-C394X variant with valine at 394 (receptor, human, UniProt P29274 1-412, looked up)
chain: B2 chain with C394V
notes: also called A2AR-C394X (valine)
B10: A2AR-C394S (receptor, human, UniProt P29274 1-412, looked up)
chain: B2 chain with C394S
notes: adenosine A2A receptor, human, with C394S; also called A2AR-C394X variant
B11: A2AR-C394X variant with leucine at 394 (receptor, human, UniProt P29274 1-412, looked up)
chain: B2 chain with C394L
notes: also called A2AR-C394X (leucine)
B12: A2AR-C394X variant with alanine at 394 (receptor, human, UniProt P29274 1-412, looked up)
chain: B2 chain with C394A
notes: also called A2AR-C394X (alanine)
B13: A2AR-FL-ERR:AAA (receptor, human, UniProt P29274 1-412, looked up)
chain: B2 chain with E355A, R356A, R357A
notes: adenosine A2A receptor, human, full length, residues 355ERR357 substituted by 355AAA357; also called A2AR-ERR:AAA variant of A2AR-FL-WT
B14: A2AR-N359ΔC (protein)
chain: B5 chain with A355E, A356R, A357R

Biological target: the molecule itself
Assay: SEC; consecutive rounds of SEC: a first round separates monomer from dimer/oligomer, a second round is run on the SEC-separated populations; total oligomer level relative to the monomer

Protein	total oligomer level (relative to monomer), SEC-separated monomer after redistribution	total oligomer level (relative to monomer), initial sample
B1	1.4 arbitrary units	1.49 arbitrary units
B2	1.6 arbitrary units	2.87 arbitrary units

Biological target: the molecule itself
Assay: SDS-PAGE and western blot densitometry of SEC-separated dimer; SEC-separated dimers incubated without or with 5 mM TCEP, then SDS-PAGE and western blot; dimer band area relative to monomer band area

Protein	dimer level (relative to monomer) with 5 mM TCEP	dimer level (relative to monomer) without TCEP
B1	0.22 arbitrary units	0.68 arbitrary units
B2	0.51 arbitrary units	1.14 arbitrary units

Biological target: the molecule itself
Assay: SEC; Superdex 200 10/300 GL; ligand-active receptor in running buffer 150 mM NaCl, 50 mM sodium phosphate, 10% glycerol, 0.1% DDM, 0.1% CHAPS, 0.02% CHS, pH 8.0; 4°C; HMW oligomer and dimer peak areas (Gaussian fit) relative to the monomer peak

Protein	binding result	dimer level (relative to monomer)	total oligomer level (relative to monomer)
B3	binds	–	–
B4	–	0.19 arbitrary units	0.62 arbitrary units
B5	–	0.48 arbitrary units	0.85 arbitrary units
B6	binds	–	–
B7	binds	–	–
B2	–	–	1.37 arbitrary units
B8	binds	–	–
B9	binds	–	–
B10	binds	–	–
B11	binds	–	–
B12	binds	–	–
B13	–	0.29 arbitrary units	0.94 arbitrary units

Biological target: P29274
Assay: as above

Protein	HMW oligomer level (relative to monomer)	HMW oligomer + dimer level (relative to monomer)
B14	ctrl: 0.68	–
B5	ERR:AAA: 0.38	–
B2	ctrl: 0.88	WT: 1.34
B13	ERR:AAA: 0.66	–
